Laboratory results published in paper PMC11584650, “An inhibitory segment within G-patch activators tunes Prp43-ATPase activity during ribosome assembly”.

What was measured:
Prp43 = Prp43 (Saccharomyces cerevisiae, UniProt P53131 1-767); experiment: fluorescence polarization; 5 mM Mg2+, no nucleotide listed; 50 mM HEPES pH 7.5, 50 mM KCl, 5 mM MgCl2, 0.05% Tween-20, 1 mM DTT; 5 nM Cy5-U12 RNA, protein 20 pM to 2.5 uM; temperature not stated; settings: protein: recombinant; tags: His6 (HRV site; pET47b); single strand
Prp43;Pxr1M = Prp43;Pxr1M (Saccharomyces cerevisiae;Saccharomyces …, UniProt P53131;P53335 1-767;72-137, |); experiment: fluorescence polarization; 5 mM Mg2+, no nucleotide listed; affinity unaltered vs Prp43 alone; 50 mM HEPES pH 7.5, 50 mM KCl, 5 mM MgCl2, 0.05% Tween-20, 1 mM DTT; 5 nM Cy5-U12 RNA, protein 20 pM to 2.5 uM; temperature not stated; settings: protein: recombinant;recombinant; tags: His6 (HRV site; pET47b);GST (pGEX-6P-1; copies: 1;1; single strand
Prp43;Tma23M = Prp43;Tma23M (Saccharomyces cerevisiae;Saccharomyces …, UniProt P53131;Q03525 1-767;43-111, |); experiment: as above; settings: protein: recombinant;recombinant; tags: His6 (HRV site; pET47b);GST (pGEX-6P-1; copies: 1;1; single strand

Measured: binding result

Prp43, sequence (P53131 whole entry): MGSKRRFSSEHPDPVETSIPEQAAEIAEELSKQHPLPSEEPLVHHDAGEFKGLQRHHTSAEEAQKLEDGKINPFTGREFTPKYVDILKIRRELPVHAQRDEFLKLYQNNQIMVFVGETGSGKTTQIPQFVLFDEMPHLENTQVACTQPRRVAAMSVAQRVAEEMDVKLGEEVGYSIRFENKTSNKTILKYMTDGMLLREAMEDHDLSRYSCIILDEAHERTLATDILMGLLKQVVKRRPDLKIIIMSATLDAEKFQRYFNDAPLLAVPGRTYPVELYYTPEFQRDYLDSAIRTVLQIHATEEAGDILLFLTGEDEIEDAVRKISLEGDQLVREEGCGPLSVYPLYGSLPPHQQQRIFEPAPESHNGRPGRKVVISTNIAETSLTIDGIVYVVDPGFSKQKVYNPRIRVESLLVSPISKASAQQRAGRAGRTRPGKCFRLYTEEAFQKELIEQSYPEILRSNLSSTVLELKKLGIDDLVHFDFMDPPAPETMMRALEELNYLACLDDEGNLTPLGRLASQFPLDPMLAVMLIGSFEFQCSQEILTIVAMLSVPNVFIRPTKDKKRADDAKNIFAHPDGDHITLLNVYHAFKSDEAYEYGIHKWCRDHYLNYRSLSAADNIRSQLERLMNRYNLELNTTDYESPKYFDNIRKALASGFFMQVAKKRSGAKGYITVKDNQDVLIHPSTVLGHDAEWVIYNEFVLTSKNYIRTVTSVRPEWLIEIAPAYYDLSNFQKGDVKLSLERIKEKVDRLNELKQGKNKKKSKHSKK
Prp43;Pxr1M, sequence (P53131 whole entry, chain 1 of 2): as the sequence (P53131 whole entry) above
Prp43;Pxr1M, sequence (P53335 72-137, chain 2 of 2): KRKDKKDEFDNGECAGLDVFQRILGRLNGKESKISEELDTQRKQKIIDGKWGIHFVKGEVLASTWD
Prp43;Tma23M, sequence (P53131 whole entry, chain 1 of 2): as the sequence (P53131 whole entry) above
Prp43;Tma23M, sequence (Q03525 43-111, chain 2 of 2): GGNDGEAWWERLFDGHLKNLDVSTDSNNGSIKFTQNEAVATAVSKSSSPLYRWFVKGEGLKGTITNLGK

UUUUUUUUUUUU (ssRNA) [Cy5-U12 RNA]
binds: all assays above
